Earlier results as cited in publication PMC8355678.

Key:
[1] = target: CCL2 receptor on monocytes (Homo sapiens) (UniProt P41597)
CXCR3 (Homo sapiens) = CXCR3 (Homo sapiens) (UniProt P49682)
Chain of UniProt P49682 (P49682 whole entry): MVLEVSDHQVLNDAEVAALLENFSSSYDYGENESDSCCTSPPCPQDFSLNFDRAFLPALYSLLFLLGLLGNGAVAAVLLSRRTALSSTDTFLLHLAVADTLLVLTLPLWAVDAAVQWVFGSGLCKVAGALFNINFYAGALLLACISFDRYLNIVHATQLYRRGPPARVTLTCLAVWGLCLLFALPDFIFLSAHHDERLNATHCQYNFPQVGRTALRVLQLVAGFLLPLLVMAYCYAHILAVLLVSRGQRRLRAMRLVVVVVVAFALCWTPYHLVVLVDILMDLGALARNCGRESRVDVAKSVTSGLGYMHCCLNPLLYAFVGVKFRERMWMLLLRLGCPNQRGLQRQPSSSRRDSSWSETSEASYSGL

Chain of UniProt P41597 (P41597 whole entry): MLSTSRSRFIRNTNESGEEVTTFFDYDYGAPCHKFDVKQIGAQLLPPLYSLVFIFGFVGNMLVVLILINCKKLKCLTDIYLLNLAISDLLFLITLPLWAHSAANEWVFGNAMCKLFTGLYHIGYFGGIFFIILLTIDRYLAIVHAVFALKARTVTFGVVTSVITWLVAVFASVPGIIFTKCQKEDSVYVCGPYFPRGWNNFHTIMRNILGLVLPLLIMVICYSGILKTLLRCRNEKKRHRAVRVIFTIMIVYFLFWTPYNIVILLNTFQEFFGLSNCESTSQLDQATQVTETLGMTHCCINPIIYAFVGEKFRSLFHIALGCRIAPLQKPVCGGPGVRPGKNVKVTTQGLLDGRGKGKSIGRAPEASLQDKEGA
Chain of CCL2 (P13500 24-99): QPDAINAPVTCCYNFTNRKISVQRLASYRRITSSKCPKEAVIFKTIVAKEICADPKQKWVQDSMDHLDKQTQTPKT

Kd (CXCR3 (Homo sapiens)) | Substance | Kd [1]
– | CCL2 (from UniProt P13500) | 0.77 nM
0.25 nM | CXCL10 (from UniProt P02778) | –
